Experimental data: patent publication US20250206828A1, “ANTI-ADENOSINE RECEPTOR (A2aR) ANTIBODIES AND THE USE THEREOF” (Adept Therapeutics Inc., priority 2022, published 2025)
Where a chain is given by its changes, count along the chain named. In names and notes the source's numbering stands. Where two headings read alike, the source gives them in different places. Values belong to the binder of their own block, whether it stands above or below them.

What was measured:
[1] = target: T1, human adenosine A2A receptor (A2aR) (human, UniProt P29274 1-412); assay: flow cytometry titration, HEK293-hA2aR cells, purified antibody
T1 construct: Assays used HEK293 cells stably overexpressing human A2aR (BPS Bioscience 79381), human A2aR-expressing CHO cells, or endogenous A2aR on human PBMC; also called human A2aR; hA2aR
T1 sequence (P29274 whole entry): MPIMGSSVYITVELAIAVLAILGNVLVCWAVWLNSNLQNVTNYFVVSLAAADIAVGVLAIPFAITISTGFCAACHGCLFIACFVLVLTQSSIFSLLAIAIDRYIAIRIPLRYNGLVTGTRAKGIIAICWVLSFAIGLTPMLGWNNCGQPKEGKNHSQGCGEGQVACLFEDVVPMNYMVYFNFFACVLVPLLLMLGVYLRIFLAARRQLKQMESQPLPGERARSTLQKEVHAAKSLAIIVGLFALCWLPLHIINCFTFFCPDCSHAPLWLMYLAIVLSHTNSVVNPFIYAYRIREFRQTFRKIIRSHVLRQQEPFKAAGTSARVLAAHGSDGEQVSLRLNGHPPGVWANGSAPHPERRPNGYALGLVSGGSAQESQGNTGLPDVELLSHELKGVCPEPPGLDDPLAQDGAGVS

[2] = target: T1, human adenosine A2A receptor (A2aR); assay: flow cytometry, HEK293-hA2aR cells, supernatant 1 ug/ml
[3] = target: T1, human adenosine A2A receptor (A2aR); assay: as above; remark: listed apart in the source
[4] = target: T1, human adenosine A2A receptor (A2aR); assay: as above; remark: listed apart in the source

B2: Hu1B5-H2/Hu1B5-L2 (antibody, human IgG1, V domains shown)
VH: EVQLVQSGAEVKKPGASVKVSCKTSGFTFTRFWMNWVRQAPGQGLEWMGRIDPYDSETQYNHKFWDRVTMTVDTSTSTVYMELSSLRSEDTAVYYCGRSLYGKGDYWGQGTTVTVSS
VL: DVVMTQSPLSLPVTLGQPASISCRSSQSIVHSNGNTYLEWYQQRPGQSPRRLIYKVSNRFSGVPDRFSGSGSGTDFTLKISRVEAEDVGVYYCFQGSHVPLTFGGGTKVEIK
notes: Human IgG1 FES (L234F, L235E, P331S) and human Ig kappa constant domains
MFI [3]: 243 MFI

B3: Hu1B5-H4/Hu1B5-L2 (antibody, human IgG1, V domains shown)
VH: B2 VH with M48I, V68A, M70L, T74K, T76S
VL: B2 VL
notes: as for B2
MFI [3]: 263 MFI

B4: Hu1B5-H1/Hu1B5-L3 (antibody, human IgG1, V domains shown)
VH: B2 VH with E1Q, T24A, V72R
VL: B2 VL with R51L
notes: as for B2
MFI [3]: 1840 MFI

B5: Hu1B5-H3/Hu1B5-L3 (antibody, human IgG1, V domains shown)
VH: B2 VH with M48I, V68A, M70L, T76S
VL: B2 VL with R51L
notes: as for B2
MFI [3]: 1850 MFI

B7: Hu1B5-H6/Hu1B5-L3 (antibody, human IgG1, V domains shown)
VH: EVQLVQSGAEVKKPGESLRISCKTSGFTFTRFWMNWVRQMPGKGLEWIGRIDPYDSETQYNHKFWDHATLSVDKSSSTVYLQWSSLKASDTAMYYCGRSLYGKGDYWGQGTTVTVSS
VL: B2 VL with R51L
notes: as for B2
MFI [3]: 1910 MFI

B8: Hu1B5-H2.1/Hu1B5-L3 (antibody, human IgG1, V domains shown)
VH: B2 VH with M48I
VL: B2 VL with R51L
notes: as for B2
MFI [3]: 1860 MFI

B9: Hu1B5-H2/Hu1B5-L3 (antibody, human IgG1, V domains shown)
VH: B2 VH
VL: B2 VL with R51L
notes: as for B2
MFI [3]: 1870 MFI

B12: Hu1B5-H5/Hu1B5-L2 (antibody, human IgG1, V domains shown)
VH: B2 VH with M48I, N61A, V68A, M70L, T74K, T76S
VL: B2 VL
notes: as for B2
MFI [3]: 283 MFI

B13: Hu1B5-H6/Hu1B5-L2 (antibody, human IgG1, V domains shown)
VH: B7 VH
VL: B2 VL
notes: as for B2
MFI [3]: 359 MFI

B15: Hu1B5-H5/Hu1B5-L3 (antibody, human IgG1, V domains shown)
VH: B2 VH with M48I, N61A, V68A, M70L, T74K, T76S
VL: B2 VL with R51L
notes: as for B2
MFI [3]: 1950 MFI

B16: Hu1B5-H3/Hu1B5-L2 (antibody, human IgG1, V domains shown)
VH: B2 VH with M48I, V68A, M70L, T76S
VL: B2 VL
notes: as for B2
MFI [3]: 231 MFI

B17: Hu1B5-H6/Hu1B5-L4 (antibody, human IgG1, V domains shown)
VH: B7 VH
VL: B2 VL with L15P, Q17E, Q42L, R44K, R50Q, R51L
notes: as for B2
MFI [3]: 1910 MFI

B18: Hu1B5-H4/Hu1B5-L3 (antibody, human IgG1, V domains shown)
VH: B2 VH with M48I, V68A, M70L, T74K, T76S
VL: B2 VL with R51L
notes: as for B2
MFI [3]: 1860 MFI

B19: Hu1B5-H2.1/Hu1B5-L2 (antibody, human IgG1, V domains shown)
VH: B2 VH with M48I
VL: B2 VL
notes: as for B2
MFI [3]: 225 MFI

B28: Hu1B5-H6/Hu1B5-L5 (antibody, human IgG1, V domains shown)
VH: B7 VH
VL: DIVMTQSPDSLAVSLGERATINCRSSQSIVHSNGNTYLEWYQQKPGQPPKLLIYKVSNRFSGVPDRFSGSGSGTDFTLTISSLQAEDVAVYYCFQGSHVPLTFGGGTKVEIK
notes: as for B2
MFI [3]: 702 MFI

Second part, the binder after the results:

EC50 [1]: 0.76 nM
MFI [2]: 1710 MFI
B1: Hu3F6-H2/Hu3F6-L8 (antibody, human IgG1, V domains shown)
VH: B2 VH with T28A, R31S, F32Y, Y54S, T58A, Q59H, N61H, D66G, G97L, Q109H
VL: B2 VL with L15P, Q17E, I29L, S32R, Q42L, R44K, R50Q, R51L, F94Y
notes: Human IgG1 FES (L234F, L235E, P331S) and human Ig kappa constant domains; also called Hu3F6 VH2/VL8

EC50 [1]: 0.65 nM
MFI [2]: 1830 MFI
B6: Hu3F6-H2/Hu3F6-L3 (antibody, human IgG1, V domains shown)
VH: B2 VH with T28A, R31S, F32Y, Y54S, T58A, Q59H, N61H, D66G, G97L, Q109H
VL: B2 VL with I29L, S32R, R51L, F94Y
notes: Human IgG1 FES (L234F, L235E, P331S) and human Ig kappa constant domains; also called Hu3F6 VH2/VL3

EC50 [1]: 0.53 nM
MFI [2]: 1790 MFI
B10: Hu3F6-H2/Hu3F6-L5 (antibody, human IgG1, V domains shown)
VH: B2 VH with T28A, R31S, F32Y, Y54S, T58A, Q59H, N61H, D66G, G97L, Q109H
VL: B2 VL with S7T, P12S, L15P, I29L, S32R, Q42L, R44K, R50Q, R51L, F94Y
notes: Human IgG1 FES (L234F, L235E, P331S) and human Ig kappa constant domains; also called Hu3F6 VH2/VL5

EC50 [1]: 0.68 nM
MFI [2]: 1590 MFI
B11: Hu3F6-H2/Hu3F6-L4 (antibody, human IgG1, V domains shown)
VH: B2 VH with T28A, R31S, F32Y, Y54S, T58A, Q59H, N61H, D66G, G97L, Q109H
VL: DIVMTQTPLSLSVTPGQPASISCRSSQSLVHRNGNTYLEWYLQKPGQSPQLLIYKVSNRFSGVPDRFSGSGSGTDFTLKISRVEAEDVGVYYCYQGSHVPLTFGGGTKVEIK
notes: Human IgG1 FES (L234F, L235E, P331S) and human Ig kappa constant domains; also called Hu3F6 VH2/VL4

MFI [4]: 285 MFI
B14: Hu3F8-H6/Hu3F8-L2 (antibody, human IgG1, V domains shown)
VH: B7 VH with T24A, F32Y, Y54S, Q59H, D66G, G97L
VL: B2 VL with F94Y
notes: as for B2

MFI [4]: 1780 MFI
B20: Hu3F8-H2/Hu3F8-L4 (antibody, human IgG1, V domains shown)
VH: B2 VH with T24A, F32Y, Y54S, Q59H, D66G, G97L
VL: B11 VL with T7S, S12P, Q17E, L29I, R32S
notes: as for B2

EC50 [1]: 0.76 nM
MFI [2]: 1830 MFI
B21: Hu3F6-H3/Hu3F6-L8 (antibody, human IgG1, V domains shown)
VH: EVQLVQSGAEVKKPGASVKVSCKTSGFAFTSYWMNWVRQAPGQGLEWIGRIDPSDSEAHYHHKFWGRATLTVDTSSSTVYMELSSLRSEDTAVYYCLRSLYGKGDYWGHGTTVTVSS
VL: B11 VL with I2V, T7S, S12P, Q17E
notes: Human IgG1 FES (L234F, L235E, P331S) and human Ig kappa constant domains; also called Hu3F6 VH3/VL8

EC50 [1]: 0.62 nM
B22: Hu3F8-H5.1/Hu3F8-L3 (antibody, human IgG1, V domains shown)
VH: B21 VH with T24A, A28T, S31R, A58T, H61A, T74K, S76T, H109Q
VL: B2 VL with R51L, F94Y
notes: Human IgG1 FES (L234F, L235E, P331S) and human Ig kappa constant domains; also called Hu3F8 VH5.1/VL3

MFI [4]: 10 MFI
B23: Hu3F8-H1/Hu3F8-L2 (antibody, human IgG1, V domains shown)
VH: B2 VH with E1Q, T24A, F32Y, Y54S, Q59H, D66G, V72R, G97L
VL: B2 VL with F94Y
notes: as for B2

MFI [4]: 16 MFI
B24: Hu3F8-H2/Hu3F8-L1 (antibody, human IgG1, V domains shown)
VH: B2 VH with T24A, F32Y, Y54S, Q59H, D66G, G97L
VL: B2 VL with Y41F, F94Y
notes: as for B2

MFI [4]: 1750 MFI
B25: Hu3F8-H1/Hu3F8-L4 (antibody, human IgG1, V domains shown)
VH: B2 VH with E1Q, T24A, F32Y, Y54S, Q59H, D66G, V72R, G97L
VL: B11 VL with T7S, S12P, Q17E, L29I, R32S
notes: as for B2

MFI [4]: 9 MFI
B26: Hu3F8-H1/Hu3F8-L1 (antibody, human IgG1, V domains shown)
VH: B2 VH with E1Q, T24A, F32Y, Y54S, Q59H, D66G, V72R, G97L
VL: B2 VL with Y41F, F94Y
notes: as for B2

EC50 [1]: 0.69 nM
B27: Hu3F8-H5.1/Hu3F8-L5 (antibody, human IgG1, V domains shown)
VH: B21 VH with T24A, A28T, S31R, A58T, H61A, T74K, S76T, H109Q
VL: B11 VL with I2V, T7S, S12P, Q17E, L29I, R32S
notes: Human IgG1 FES (L234F, L235E, P331S) and human Ig kappa constant domains; also called Hu3F8 VH5.1/VL5
